{
  "source": "patent US20240307560A1",
  "about": "“HEPTAMETHINE CARBOCYANINE DYE-DOTA CONJUGATES COMPLEXED WITH LUTETIUM-177, YTTRIUM-90, OR GALLIUM-68, AND THEIR USES FOR IMAGE-GUIDED RADIOTHERAPY” (priority 2020, published 2024)",
  "key": {"[1]": {"format": "in vitro ADME, Bovine", "conditions": "for half-life (stability in serum): bovine", "procedure": "DZ-1-Lys-DOTA-^68Ga was incubated with Fetal Bovine Serum (FBS) at 37° C., and the stability of DZ-1-Lys-DOTA-^68Ga was analyzed by radio-TLC with 0.1M citric acid as eluent.\nThe % purity is a marker for stability, with a higher purity indicating a higher stability.\nThe DZ-1-Lys-DOTA-^177Lu was incubated with Fetal Bovine Serum (FBS) at 37° C., and the probe was analyzed by radio-TLC with 0.1M citric acid as eluent (see FIG. 3). Stability is determined by the percentage of the labeled compound (radiochemical purity).\nThe DZ-1-Lys-DOTA-^90Y was incubated with Fetal Bovine Serum (FBS) (V:V=2:1) at 37° C. and the probe was analyzed by radio-TLC with 0.1M citric acid as eluent."}, "[2]": {"tested_on": "MDA-MB-231 breast cancer cells", "experiment": "Cytotoxicity study, CCK-8", "conditions": "for % cell viability: human", "procedure": "The MDA-MB-231 breast cancer cells were pre-seeded into 96-well plates (10^4 cells/well), and placed in a 37° C., 5% CO2 incubator until the cells were fully attached. Serially diluted DZ-1-Lys-DOTA-^90Y (100 μL) was added to each well (7 concentrations diluted from 20 μCi in half), and 3 replicate wells for each concentration point. After 24 and 48 hours of treatment, the supernatant was discarded, and 10 μL of CCK-8 solution and 100 μL of medium were added to each well. The culture was continued for 1 h in the incubator, and the absorbance of each well at 450 nm was measured with a microplate reader."}, "in vivo": {"experiment": "in vivo", "parameters": "species or system Balb/C mice", "conditions": "Balb/C, mouse, iv", "procedure": "DZ-1-Lys-DOTA-^68Ga (50 μCi) probe was injected into the tail vein of Balb/C mice (n=6, each about 20 g of body weight). Approximately 10 μL of blood from the contralateral tail vein was collected in capillary tubes at 2 min, 5 min, 15 min, 30 min, 1 h, 2 h and 4.5 h post probe injection. The capillaries were placed in pre-weighed tubes to measure the weight and radioactivity of the blood withdrawn. Radioactivity from each sample was measured by a gamma counter with radioactivity decay corrected to the time of probe injection, normalized for injected dose and blood weight, and expressed as percentage injected dose per gram blood (FIG. 2). Each animal was i.v. injected 50 μCi of the probe.\nDZ-1-Lys-DOTA-^177Lu (50 μCi) was injected into the tail vein of Balb/C mice (n=6, about 20 g). Approximately 10 μL of blood from the contralateral tail vein was collected in capillary tubes at 2 min, 5 min, 15 min, 30 min, 1 h, 2 h and 6 h post probe injection. The capillaries were placed in pre-weighed tubes to measure the weight and radioactivity of the blood withdrawn. Radioactivity from each sample was measured by a gamma counter with the radioactivity decay corrected to the time of probe injection, normalized for injected dose and blood weight, and expressed as percentage injected dose per gram blood."}, "[3]": {"conditions": "50 uCi, total radioactivity, Normalized radioactivity in blood (% ID/g)"}},
  "data": [
    {"smiles": "CC1(C)C(/C=C/C2=C(Cl)C(=C/C=C3/N(CCCCCC(=O)NCCCCC(NC(=O)CN4CCN(CC(=O)O)CCN(CC(=O)O)CCN(CC(=O)O)CC4)C(=O)O)c4ccccc4C3(C)C)/CCC2)=[N+](CCCCS(=O)(=O)[O-])c2ccccc21", "note": "(single isomer, unassigned) [DZ-1-Lys-DOTA-90Y, metal not drawn]", "values": [
      {"measurement": "retention (radiochemical purity)", "setting": "[1]", "value": "about 30%"},
      {"measurement": "half-life (stability in serum)", "setting": "[1]", "value": "about 240 min"},
      {"measurement": "breast cancer cells caused to die", "setting": "[2]; 20 μCi, within 48 hours", "value": 80, "unit": "%"},
      {"measurement": "cancer cell killing compared to free 90Y (in words)", "setting": "[2]; 48 h, 20 microCi", "value": "kills MDA-MB-231 triple-negative breast cancer cells more effectively"},
      {"measurement": "% cell viability", "setting": "[2]; 48 h, 0.3125 μCi", "value": 43.92, "unit": "%"},
      {"measurement": "% cell viability", "setting": "[2]; 48 h, 0.625 μCi", "value": 42.08, "unit": "%"},
      {"measurement": "% cell viability", "setting": "[2]; 48 h, 1.25 μCi", "value": 41.50, "unit": "%"},
      {"measurement": "% cell viability", "setting": "[2]; 48 h, 2.5 μCi", "value": 39.63, "unit": "%"},
      {"measurement": "% cell viability", "setting": "[2]; 48 h, 5 μCi", "value": 35.57, "unit": "%"},
      {"measurement": "% cell viability", "setting": "[2]; 48 h, 10 μCi", "value": 35.46, "unit": "%"},
      {"measurement": "% cell viability", "setting": "[2]; 48 h, 20 μCi", "value": 19.21, "unit": "%"}
    ]},
    {"smiles": "CC1(C)C(/C=C/C2=C(Cl)C(=C/C=C3/N(CCCCCC(=O)NCCCCC(NC(=O)CN4CCN(CC(=O)O)CCN(CC(=O)O)CCN(CC(=O)O)CC4)C(=O)O)c4ccccc4C3(C)C)/CCC2)=[N+](CCCCS(=O)(=O)[O-])c2ccccc21", "note": "(single isomer, unassigned) [DZ-1-Lys-DOTA-177Lu, metal not drawn]", "values": [
      {"measurement": "retention (radiochemical purity)", "setting": "[1]", "value": "about 30%"},
      {"measurement": "half-life (stability in serum)", "setting": "[1]", "value": "about 700 min"},
      {"measurement": "elimination half-life for blood clearance (T1/2)", "setting": "in vivo", "value": 15, "unit": "min"},
      {"measurement": "Normalized radioactivity in blood (% ID/g)", "setting": "in vivo; 50 uCi, 2 min", "value": 1.26, "unit": "% ID/g"},
      {"measurement": "Normalized radioactivity in blood (% ID/g)", "setting": "in vivo; 50 uCi, 5 min", "value": 0.86, "unit": "% ID/g"},
      {"measurement": "Normalized radioactivity in blood (% ID/g)", "setting": "in vivo; 50 uCi, 0.25 h", "value": 0.51, "unit": "% ID/g"},
      {"measurement": "Normalized radioactivity in blood (% ID/g)", "setting": "in vivo; 50 uCi, 0.5 h", "value": 0.43, "unit": "% ID/g"},
      {"measurement": "Normalized radioactivity in blood (% ID/g)", "setting": "in vivo; 50 uCi, 1 h", "value": 0.36, "unit": "% ID/g"},
      {"measurement": "Normalized radioactivity in blood (% ID/g)", "setting": "in vivo; 50 uCi, 2 h", "value": 0.34, "unit": "% ID/g"},
      {"measurement": "tissue uptake at 6 h", "setting": "in vivo; [3]", "value": 0.23, "unit": "%ID/g"}
    ]},
    {"smiles": "CC1(C)C(/C=C/C2=C(Cl)C(=C/C=C3/N(CCCCCC(=O)NCCCCC(NC(=O)CN4CCN(CC(=O)O)CCN(CC(=O)O)CCN(CC(=O)O)CC4)C(=O)O)c4ccccc4C3(C)C)/CCC2)=[N+](CCCCS(=O)(=O)[O-])c2ccccc21", "note": "(single isomer, unassigned) [DZ-1-Lys-DOTA-68Ga, metal not drawn]", "values": [
      {"measurement": "elimination half-life for blood clearance (T1/2)", "setting": "in vivo", "value": 30, "unit": "min"},
      {"measurement": "Normalized radioactivity in blood (% ID/g)", "setting": "in vivo; 50 uCi, 0.25 h", "value": 1.13, "unit": "% ID/g"},
      {"measurement": "Normalized radioactivity in blood (% ID/g)", "setting": "in vivo; 50 uCi, 0.5 h", "value": 0.97, "unit": "% ID/g"},
      {"measurement": "Normalized radioactivity in blood (% ID/g)", "setting": "in vivo; 50 uCi, 1 h", "value": 0.80, "unit": "% ID/g"},
      {"measurement": "Normalized radioactivity in blood (% ID/g)", "setting": "in vivo; 50 uCi, 2 h", "value": 0.70, "unit": "% ID/g"},
      {"measurement": "tissue uptake at 2 min", "setting": "in vivo; [3]", "value": 1.83, "unit": "%ID/g"},
      {"measurement": "tissue uptake at 5 min", "setting": "in vivo; [3]", "value": 1.44, "unit": "%ID/g"},
      {"measurement": "tissue uptake at 4.5 h", "setting": "in vivo; [3]", "value": 0.5, "unit": "%ID/g"},
      {"measurement": "tissue uptake", "setting": "in vivo; 50 uCi, total radioactivity, normalized radioactivity in blood (D/g)", "value": "~1.8", "unit": "%ID/g"}
    ]}
  ]
}
